Test results: paper PMC8944080, “Production of indole by Corynebacterium glutamicum microbial cell factories for flavor and fragrance applications” (Microbial Cell Factories, 2022)

Legend:
[1] = test system: T1, N[C@@H](Cc1c[nH]c2ccccc12)C(=O)O; test: purified protein; type: biochemical, Proteus vulgaris; details: 100 mM KPi pH 7.8, 30 °C, 0.05 mM pyridoxal phosphate, 1 mM DTT
T1 construct: full length, N-terminal 6xHis tag, codon-optimised gene, pACYCDuet-1, E. coli BL21(DE3), Ni-NTA; TNAs are homotetramers

[2] = test system: N[C@@H](Cc1c[nH]c2ccccc12)C(=O)O; test: purified protein; details: 100 mM KPi pH 7.8, 30 °C, 0.05 mM pyridoxal phosphate, 1 mM DTT

Q: Which results are given for PvTNA (Proteus vulgaris)?
A: Km [1]: 0.03 ± 0.003 mM; kcat [1]: 0.78 ± 0.02 s⁻¹; kcat/Km [1]: 26000 ± 5800 M⁻¹ s⁻¹

Q: How did the Km [2] turn out when EcTNA (Escherichia coli K-12) was run?
A: Its Km is 0.14 ± 0.01 mM.

Q: And the kcat [2]?
A: Its kcat is 1.65 s⁻¹.

Q: What about the kcat/Km [2] of the same substance?
A: The kcat/Km was 11800 M⁻¹ s⁻¹.
